Literature values as cited in paper PMC9974451.

Target: Ubc9 (Homo sapiens) (UniProt P63279)
Test: differential scanning fluorometry

importin 13, sequence (O94829 whole entry): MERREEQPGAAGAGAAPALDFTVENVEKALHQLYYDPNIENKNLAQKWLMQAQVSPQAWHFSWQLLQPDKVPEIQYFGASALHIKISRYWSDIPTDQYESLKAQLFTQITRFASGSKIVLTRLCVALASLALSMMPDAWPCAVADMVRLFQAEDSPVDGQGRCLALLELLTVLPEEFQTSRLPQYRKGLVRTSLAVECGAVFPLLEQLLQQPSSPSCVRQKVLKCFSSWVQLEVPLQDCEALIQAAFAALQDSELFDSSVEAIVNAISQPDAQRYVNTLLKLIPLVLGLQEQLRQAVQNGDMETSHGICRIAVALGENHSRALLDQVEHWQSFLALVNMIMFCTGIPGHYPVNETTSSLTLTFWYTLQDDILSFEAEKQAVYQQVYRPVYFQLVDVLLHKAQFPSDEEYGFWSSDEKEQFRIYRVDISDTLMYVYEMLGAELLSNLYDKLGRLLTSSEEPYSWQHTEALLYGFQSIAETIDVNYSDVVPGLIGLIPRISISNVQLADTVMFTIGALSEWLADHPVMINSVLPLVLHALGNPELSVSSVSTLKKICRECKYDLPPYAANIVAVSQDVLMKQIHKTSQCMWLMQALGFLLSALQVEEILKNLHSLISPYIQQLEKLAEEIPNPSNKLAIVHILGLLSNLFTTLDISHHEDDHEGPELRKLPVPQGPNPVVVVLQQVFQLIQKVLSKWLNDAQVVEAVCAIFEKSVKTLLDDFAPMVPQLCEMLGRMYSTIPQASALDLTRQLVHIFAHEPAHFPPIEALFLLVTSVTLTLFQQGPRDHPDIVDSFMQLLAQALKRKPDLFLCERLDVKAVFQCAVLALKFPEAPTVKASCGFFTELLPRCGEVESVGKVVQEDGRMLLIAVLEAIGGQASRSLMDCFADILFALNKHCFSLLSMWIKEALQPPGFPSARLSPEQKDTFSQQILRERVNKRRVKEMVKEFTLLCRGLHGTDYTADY
Ubc9 (Homo sapiens), sequence (P63279 2-158): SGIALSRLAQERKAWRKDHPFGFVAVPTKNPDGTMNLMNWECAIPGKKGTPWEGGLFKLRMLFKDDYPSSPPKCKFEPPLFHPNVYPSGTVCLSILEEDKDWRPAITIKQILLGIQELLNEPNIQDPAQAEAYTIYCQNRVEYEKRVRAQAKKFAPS

Kd: 370 nM
Substance: importin 13 (from UniProt O94829)
